Test results: patent publication US20110124706A1, “SOCS3 Inhibition Promotes CNS Neuron Regeneration” (priority 2009, published 2011)
“Also recorded” adds a separate entry of the source.

Tested on: injured optic nerve axons
Assay: optic nerve crush injury, axon regeneration assessed by CTB anterograde tracing
Format: in vivo, mice
Conditions: intravitreal 1 μl CNTF (1 μg/μl) immediately before and 3 days after injury
Method: We applied optic nerve crush injury to assess axon growth ability in adult CNS in different conditional floxed mice (Park et al., 2008 Science 322, 963-966). Intravitreal application of recombinant adeno-associated viruses expressing Cre (AAVCre) results in Cre-dependent reporter expression in more than 90% of RGCs. Regeneration was assessed in the injured optic nerve axons by using cholera toxin beta subunit (CTB), an anterograde tracer, which was injected into the vitreous of the retina following optic nerve injury two days prior to histological analyses. Neuronal survival was assessed using whole-mount staining of the retinal tissue by immunostaining with an anti-β-III tubulin antibody, a commonly used marker of RGCs.
We intravitreously injected 1 μl CNTF (1 μg/μl) immediately before injury and 3 days after injury (PBS injection was used as control).

B1: ciliary neurotrophic factor (protein, UniProt P26441 1-200, looked up)
Ciliary neurotrophic factor: MAFTEHSPLTPHRRDLCSRSIWLARKIRSDLTALTESYVKHQGLNKNINLDSADGMPVASTDQWSELTEAERLQENLQAYRTFHVLLARLLEDQQVHFTPTEGDFHQAIHTLLLQVAAFAYQIEELMILLEYKIPRNEADGMPINVGDGGLFEKKLWGLKVLQELSQWTVRSIHDLRFISSHQTGIPARGSHYIANNKKM
- numbers and lengths of regenerating axons (SOCS3 deleted mice): dramatic increase; also recorded: further enhances
- axon regeneration (control mice (SOCS3f/f with AAV-GFP)): limited degree of axon regeneration
